The results in this text go back to PMC10202959, “A superior extracellular matrix binding motif to enhance the regenerative activity and safety of therapeutic proteins” (NPJ Regenerative Medicine, 2023).

As usually defined, the Kd is the equilibrium constant for the complex coming apart.

The labels stand for the following.
B1: platelet-derived growth factor-BB (wild type) (natural protein, UniProt P31240 82-190, looked up)
chain: SLGSLAAAEPAVIAECKTRTEVFQISRNLIDRTNANFLVWPPCVEVQRCSGCCNNRNVQCRASQVQMRPVQVRKIEIVRKKPIFKKATVTLEDHLACKCETIVTPRPVT
notes: platelet-derived growth factor subunit B; also called PDGF-BB; source: bought: Peprotech
B2: interleukin-1 receptor antagonist (wild type) (natural protein, UniProt P25085 27-178, looked up)
chain: RPSGKRPCKMQAFRIWDTNQKTFYLRNNQLIAGYLQGPNIKLEEKIDMVPIDLHSVFLGIHGGKLCLSCAKSGDDIKLQLEEVNITDLSKNKEEDKRFTFIRSEKGPTTSFESAACPGWFLCTTLEADRPVSLTNTPEEPLIVTKFYFQEDQ
notes: interleukin-1 receptor antagonist protein; also called IL-1Ra; source: bought: Peprotech
B3: human fibrinogen (complex)
chain 1: ADSGEGDFLAEGGGVRGPRVVERHQSACKDSDWPFCSDEDWNYKCPSGCRMKGLIDEVNQDFTNRINKLKNSLFEYQKNNKDSHSLTTNIMEILRGDFSSANNRDNTYNRVSEDLRSRIEVLKRKVIEKVQHIQLLQKNVRAQLVDMKRLEVDIDIKIRSCRGSCSRALAREVDLKDYEDQQKQLEQVIAKDLLPSRDRQHLPLIKMKPVPDLVPGNFKSQLQKVPPEWKALTDMPQMRMELERPGGNEITRGGSTSYGTGSETESPRNPSSAGSWNSGSSGPGSTGNRNPGSSGTGGTATWKPGSSGPGSTGSWNSGSSGTGSTGNQNPGSPRPGSTGTWNPGSSERGSAGHWTSESSVSGSTGQWHSESGSFRPDSPGSGNARPNNPDWGTFEEVSGNVSPGTRREYHTEKLVTSKGDKELRTGKEKVTSGSTTTTRRSCSKTVTKTVIGPDGHKEVTKEVVTSEDGSDCPEAMDLGTLSGIGTLDGFRHRHPDEAAFFDTASTGKTFPGFFSPMLGEFVSETESRGSESGIFTNTKESSSHHPGIAEFPSRGKSSSYSKQFTSSTSYNRGDSTFESKSYKMADEAGSEADHEGTHSTKRGHAKSRPV
chain 2: QGVNDNEEGFFSARGHRPLDKKREEAPSLRPAPPPISGGGYRARPAKAAATQKKVERKAPDAGGCLHADPDLGVLCPTGCQLQEALLQQERPIRNSVDELNNNVEAVSQTSSSSFQYMYLLKDLWQKRQKQVKDNENVVNEYSSELEKHQLYIDETVNSNIPTNLRVLRSILENLRSKIQKLESDVSAQMEYCRTPCTVSCNIPVVSGKECEEIIRKGGETSEMYLIQPDSSVKPYRVYCDMNTENGGWTVIQNRQDGSVDFGRKWDPYKQGFGNVATNTDGKNYCGLPGEYWLGNDKISQLTRMGPTELLIEMEDWKGDKVKAHYGGFTVQNEANKYQISVNKYRGTAGNALMDGASQLMGENRTMTIHNGMFFSTYDRDNDGWLTSDPRKQCSKEDGGGWWYNRCHAANPNGRYYWGGQYTWDMAKHGTDDGVVWMNWKGSWYSMRKMSMKIRPFFPQQ
chain 3: YVATRDNCCILDERFGSYCPTTCGIADFLSTYQTKVDKDLQSLEDILHQVENKTSEVKQLIKAIQLTYNPDESSKPNMIDAATLKSRKMLEEIMKYEASILTHDSSIRYLQEIYNSNNQKIVNLKEKVAQLEAQCQEPCKDTVQIHDITGKDCQDIANKGAKQSGLYFIKPLKANQQFLVYCEIDGSGNGWTVFQKRLDGSVDFKKNWIQYKEGFGHLSPTGTTEFWLGNEKIHLISTQSAIPYALRVELEDWNGRTSTADYAMFKVGPEADKYRLTYAYFAGGDAGDAFDGFDFGDDPSDKFFTSHNGMQFSTWDNDNDKFEGNCAEQDGSGWWMNKCHAGHLNGVYYQGGTYSKASTPNGYDNGIIWATWKTRWYSMKKTTMKIIPFNRLTIGEGQQHHLGGAKQAGDV
modifications: Plasma-derived disulfide-linked hexamer (alpha-beta-gamma)2, fibrinopeptides A and B retained, N-glycosylated. Isoforms are not printed: the major plasma forms are taken by convention, i.e. the …
B4: amphiregulin (natural protein, human, UniProt P15514 101-187, looked up)
chain: SVRVEQVVKPPQNKTESENTSDKPKRKKKGGKNGKNRRNRKKKNPCNAEFQNFCIHGECKYIEHLEAVTCKCQQEYFGERCGEKSMK
notes: amphiregulin; it is a soluble form, not the 252 aa precursor (surmise); also called AREG; source: bought: Peprotech (carrier-free recombinant)
B5: neurturin (natural protein, human, UniProt Q99748 96-197, looked up)
chain: ARLGARPCGLRELEVRVSELGLGYASDETVLFRYCAGACEAAARVYDLGLRRLRQRRRLRRERVRAQPCCRPTAYEDEVSFLDAHSRYHTVHELSARECACV
notes: neurturin; also called NRTN; source: bought: Peprotech (carrier-free recombinant)
B6: placenta growth factor-2 (natural protein, human, UniProt P49763-3 19-170, looked up)
chain: LPAVPPQQWALSAGNGSSEVEVVPFQEVWGRSYCRALERLVDVVSEYPSEVEHMFSPSCVSLLRCTGCCGDENLHCVPVETANVTMQLLKIRSGDRPSYVELTFSQHVRCECRPLREKMKPERRRPKGRGKRRREKQRPTDCHLCGDAVPRR
notes: placenta growth factor, PlGF-2; also called PlGF; PlGF-2; source: bought: Peprotech (carrier-free recombinant)

What all share (details): both partners purified
The target in assay [1] is T1, human vitronectin (human, UniProt P04004 20-478).
T1 construct: vitronectin, human; source: bought: Peprotech
T1 sequence (P04004 20-478): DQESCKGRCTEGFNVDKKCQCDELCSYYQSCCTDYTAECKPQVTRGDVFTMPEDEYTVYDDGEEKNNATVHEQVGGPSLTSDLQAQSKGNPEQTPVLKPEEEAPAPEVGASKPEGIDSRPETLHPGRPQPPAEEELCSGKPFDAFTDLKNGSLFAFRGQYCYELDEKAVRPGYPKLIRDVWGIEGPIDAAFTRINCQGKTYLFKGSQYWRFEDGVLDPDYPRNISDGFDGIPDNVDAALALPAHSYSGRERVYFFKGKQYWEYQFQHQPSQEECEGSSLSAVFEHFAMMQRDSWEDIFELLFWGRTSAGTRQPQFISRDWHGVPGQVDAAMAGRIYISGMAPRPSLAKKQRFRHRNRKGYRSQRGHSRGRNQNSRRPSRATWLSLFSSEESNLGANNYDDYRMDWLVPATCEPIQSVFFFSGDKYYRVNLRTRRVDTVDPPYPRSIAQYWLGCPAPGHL
Put plainly: ELISA; plates coated with 100 nM ECM protein in PBS (1 h, 37 °C), blocked with 1% BSA in PBS-T; PDGF-BB or IL-1Ra variants at increasing concentrations in PBS-T with 0.1% BSA, 1 h at room temperature; detected with biotinylated antibodies; one site specific binding model; n = 3. Background: An ELISA detects its analyte on a solid surface through an enzyme-linked reagent.

Assay [2] addresses T2, human tenascin C (human, UniProt P24821 23-2201).
T2 construct: tenascin C, human; also called Tenacin C; source: bought: R&D Systems
Described as above.

The target of assay [3] is human plasma fibronectin (human). Described as above.
Assay [4] addresses B3. The assay is described as above.
Target sequence in this assay (P02671 36-866): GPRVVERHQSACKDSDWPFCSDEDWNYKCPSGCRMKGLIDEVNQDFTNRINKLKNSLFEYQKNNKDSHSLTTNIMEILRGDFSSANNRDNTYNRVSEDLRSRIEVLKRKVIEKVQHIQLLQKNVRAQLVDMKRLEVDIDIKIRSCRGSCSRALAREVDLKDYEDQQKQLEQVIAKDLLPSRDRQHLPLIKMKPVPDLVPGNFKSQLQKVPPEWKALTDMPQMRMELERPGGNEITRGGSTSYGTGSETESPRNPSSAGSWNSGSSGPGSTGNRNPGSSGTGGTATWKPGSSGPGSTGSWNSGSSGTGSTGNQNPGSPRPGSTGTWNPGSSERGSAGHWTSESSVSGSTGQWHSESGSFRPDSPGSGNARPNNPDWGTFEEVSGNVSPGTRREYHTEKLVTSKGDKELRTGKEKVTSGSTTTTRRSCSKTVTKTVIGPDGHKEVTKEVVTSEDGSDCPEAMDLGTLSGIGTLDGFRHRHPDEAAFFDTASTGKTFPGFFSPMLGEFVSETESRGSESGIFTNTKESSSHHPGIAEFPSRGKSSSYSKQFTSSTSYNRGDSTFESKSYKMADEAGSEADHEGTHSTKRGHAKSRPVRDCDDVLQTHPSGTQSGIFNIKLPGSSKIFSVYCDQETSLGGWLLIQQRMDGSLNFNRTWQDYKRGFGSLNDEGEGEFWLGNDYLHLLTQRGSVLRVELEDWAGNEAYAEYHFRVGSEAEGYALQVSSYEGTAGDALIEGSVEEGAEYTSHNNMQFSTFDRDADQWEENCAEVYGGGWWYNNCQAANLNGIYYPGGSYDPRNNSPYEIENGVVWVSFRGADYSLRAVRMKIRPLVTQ
A further assay deals with T3, AREG26-38/IL-1Ra (human | ).
T3 construct: interleukin-1 receptor antagonist protein; Both the His tag and AREG26-38 are said to stand at the N-terminus; also called AREG126-138/IL-1Ra; engineered IL-1Ra; source: E. coli BL21 (DE3), pET-22b, soluble fraction, purified (Ni column)
T3 sequence (P02671 36-866): as above
The assay is described as above.

The target in another assay is T4, AREG26-38/PDGF-BB (human | ).
T4 construct: platelet-derived growth factor subunit B; AREG26-38 at the N-terminus of PDGF-B; also called AREG126-138/PDGF-BB; engineered PDGF-BB
T4 sequence (P02671 36-866): as above
Described as above.

The target in assay [5] is T1, human vitronectin. Put plainly: ELISA; plates coated with 100 nM PlGF-2, AREG or NRTN (1 h, 37 °C), blocked with 1% BSA in PBS-T; ECM proteins at increasing concentration in PBS-T with 0.1% BSA; bound ECM protein detected with HRP-conjugated antibodies; one site specific binding model; n = 3.
For assay [6], the target named is T2, human tenascin C. The description is as above.
The target of assay [7] is human plasma fibronectin (human). The assay is described as above.
In assay [8] the target is B3. The description is as above.

T2 sequence (P24821 23-2201): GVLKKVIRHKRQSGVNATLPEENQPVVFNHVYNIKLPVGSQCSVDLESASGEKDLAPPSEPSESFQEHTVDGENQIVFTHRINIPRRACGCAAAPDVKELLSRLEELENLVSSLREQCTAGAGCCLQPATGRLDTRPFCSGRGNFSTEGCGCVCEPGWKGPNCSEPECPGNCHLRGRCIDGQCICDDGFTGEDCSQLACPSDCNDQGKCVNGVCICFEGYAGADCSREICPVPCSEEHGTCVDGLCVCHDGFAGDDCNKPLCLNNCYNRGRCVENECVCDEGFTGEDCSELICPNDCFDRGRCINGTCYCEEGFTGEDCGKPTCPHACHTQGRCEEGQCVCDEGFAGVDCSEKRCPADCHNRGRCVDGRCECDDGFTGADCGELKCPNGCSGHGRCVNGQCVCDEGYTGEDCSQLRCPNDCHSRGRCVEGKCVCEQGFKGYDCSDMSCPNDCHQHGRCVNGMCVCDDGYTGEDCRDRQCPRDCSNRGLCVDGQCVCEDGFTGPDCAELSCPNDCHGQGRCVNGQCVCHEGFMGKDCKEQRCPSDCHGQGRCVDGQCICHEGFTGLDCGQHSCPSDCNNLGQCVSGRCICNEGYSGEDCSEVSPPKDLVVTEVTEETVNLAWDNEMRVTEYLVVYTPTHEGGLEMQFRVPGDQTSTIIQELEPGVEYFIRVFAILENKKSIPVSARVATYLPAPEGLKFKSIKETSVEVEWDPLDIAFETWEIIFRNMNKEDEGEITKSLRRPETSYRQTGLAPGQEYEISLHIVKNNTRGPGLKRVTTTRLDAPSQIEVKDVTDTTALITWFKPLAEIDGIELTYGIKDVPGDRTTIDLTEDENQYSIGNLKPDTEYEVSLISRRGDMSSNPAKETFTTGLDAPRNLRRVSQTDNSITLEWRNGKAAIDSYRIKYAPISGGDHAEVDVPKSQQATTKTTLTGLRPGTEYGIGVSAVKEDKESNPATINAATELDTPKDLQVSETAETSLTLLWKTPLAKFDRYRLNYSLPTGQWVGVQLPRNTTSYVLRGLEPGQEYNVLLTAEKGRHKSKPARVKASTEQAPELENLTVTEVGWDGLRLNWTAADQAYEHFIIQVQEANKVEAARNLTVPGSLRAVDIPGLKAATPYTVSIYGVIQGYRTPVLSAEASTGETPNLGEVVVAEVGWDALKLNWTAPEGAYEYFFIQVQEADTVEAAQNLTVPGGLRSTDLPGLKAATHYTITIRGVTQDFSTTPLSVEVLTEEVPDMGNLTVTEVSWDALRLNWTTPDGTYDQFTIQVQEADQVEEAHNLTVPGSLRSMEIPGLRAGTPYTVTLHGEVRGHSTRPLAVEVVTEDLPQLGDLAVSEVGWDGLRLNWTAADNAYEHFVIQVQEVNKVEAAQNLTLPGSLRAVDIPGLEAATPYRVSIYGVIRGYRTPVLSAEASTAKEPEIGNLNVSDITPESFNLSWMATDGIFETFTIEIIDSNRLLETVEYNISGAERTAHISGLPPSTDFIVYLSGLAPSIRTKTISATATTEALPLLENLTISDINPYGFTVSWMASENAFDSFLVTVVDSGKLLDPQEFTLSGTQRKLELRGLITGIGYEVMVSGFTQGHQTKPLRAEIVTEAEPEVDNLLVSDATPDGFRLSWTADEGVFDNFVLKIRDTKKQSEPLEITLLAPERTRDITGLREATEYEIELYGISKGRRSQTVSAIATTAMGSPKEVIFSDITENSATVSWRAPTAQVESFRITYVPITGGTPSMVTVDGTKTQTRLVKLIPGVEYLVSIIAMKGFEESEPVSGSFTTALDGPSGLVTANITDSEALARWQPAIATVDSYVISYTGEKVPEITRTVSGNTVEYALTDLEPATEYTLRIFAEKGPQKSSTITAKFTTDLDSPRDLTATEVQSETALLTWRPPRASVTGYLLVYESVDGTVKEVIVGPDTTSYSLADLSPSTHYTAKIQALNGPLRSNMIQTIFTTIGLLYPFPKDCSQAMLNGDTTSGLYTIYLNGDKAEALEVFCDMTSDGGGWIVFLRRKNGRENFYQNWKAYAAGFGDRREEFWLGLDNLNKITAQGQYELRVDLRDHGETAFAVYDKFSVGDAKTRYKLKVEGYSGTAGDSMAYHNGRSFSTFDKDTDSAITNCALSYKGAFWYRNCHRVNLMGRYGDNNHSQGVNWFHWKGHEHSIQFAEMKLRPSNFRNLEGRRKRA

As to B1, the Kd worked out at 29.7 nM in the assay with human vitronectin [1], 87.8 nM in the assay with human tenascin C [2], 74.2 nM with human plasma fibronectin [3] and 210 nM in the assay with human fibrinogen [4].

For the molecule B2, the Kd with human vitronectin [1] stood at 96.5 nM; with human tenascin C [2], 137 nM; in the assay with human plasma fibronectin [3], 153 nM; with human fibrinogen [4], 640 nM.

Take B3: the Kd with AREG26-38/IL-1Ra was found to be 16.9 nM; with AREG26-38/PDGF-BB, 13.9 nM.

Regarding B4, the Kd with human vitronectin [5] was 9.3 nM; with human tenascin C [6], 11 nM; with human plasma fibronectin [7], 8.9 nM; in the assay with human fibrinogen [8] it was 7.4 nM.

In the case of B5, the equilibrium dissociation constant (Kd) with human vitronectin [5] was 53.1 nM; with human tenascin C [6] it was 55.7 nM; with human plasma fibronectin [7], 79.4 nM; with human fibrinogen [8], 390 nM.

For B6, the Kd with human vitronectin [5] was 13.2 nM; with human tenascin C [6], 79.4 nM; with human plasma fibronectin [7] it was 17.2 nM; with human fibrinogen [8], 14.1 nM.
